The values that follow come from patent publication US5661005, “β3 integrin subunit specific polypeptides, cDNAS which encode these polypeptides and methods of producing these polypeptides” (Trustees of the University of Pennsylvania, dated 1997).

Experiment [1] has as its target T1, integrin β1 cytoplasmic domain (Homo sapiens (Human), UniProt P05556).
T1 chain: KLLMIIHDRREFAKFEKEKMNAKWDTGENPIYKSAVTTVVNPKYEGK
The experiment in a line: yeast two-hybrid, quantitative β-galactosidase assay.

The target of experiment [2] is T2, integrin β2 cytoplasmic domain (Homo sapiens (Human), UniProt P05107).
T2 chain: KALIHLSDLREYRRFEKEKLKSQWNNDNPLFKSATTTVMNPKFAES
Described as above.

The target in experiment [3] is β3 cytoplasmic tail with mutation of a serine to a proline at amino acid residue 752 (Saccharomyces cerevisiae (strain ATCC 204508 / S288c) (Baker's yeast); Homo sapiens (Human)) (UniProt P04386). The experiment in a line: yeast two-hybrid, quantitative β-galactosidase assay of yeast lysates.

B1: polypeptide encoded by clone 28 (SEQ ID NO: 2), β3 integrin subunit specific polypeptide (other)
chain: GHEGPKITRKKSVITYSPTTGTCQMSLFASPTSSEEQKHRNGLSNEKRKKLNHPSLTESKESTTKDNDEFMMLLSKVEKLSEEIMEIMQNLSSIQ
In the case of B1, the binding result in experiment [1] and in experiment [2] was “no binding” in each case. Moreover, the reduction in the interaction (against the unmutated β3 cytoplasmic tail) in experiment [3] was 70%.

B2: β3 integrin subunit specific polypeptide comprising about 111 amino acids (SEQ ID NO: 4) (other)
chain: MPVKRSLKLDGLLEENSFDPSKITRKKSVITYSPTTGTCQMSLFASPTSSEEQKHRNGLSNEKRKKLNHPSLTESKESTTKDNDEFMMLLSKVEKLSEEIMEIMQNLSSIQ
Turning to B2, the binding result in experiment [1] and in experiment [2] was “no binding” throughout.
